Data on 41 sequences can be found in the nanobody polyreactivity screen of Harvey et al. (2022).

The nature of this series: yeast display, Sf9 membrane polyspecificity reagent, FACS + sequencing; frameworks hold sequencing errors. In a few lines: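 In a synthetic yeast display library (Saccharomyces cerevisiae BJ5465), nanobody expression was induced with galactose for 36–48 hours. FACS gates were set low and high (top ~1%) using anti-HA fluorescence for expression and streptavidin fluorescence for binding of the Sf9 membrane reagent. Each polyreactivity label is drawn from the gate of origin.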
“QVQLVESGGGLVQAGGSLRLSCAASGRIFAWNAMGWYRQAPGKERELVAAITRGTNTYYADSVKGRFTISRDNAKNTVYLQMNSLKPEDTAVYYCAARLPYNAIGYYYWGQGTQVTVSS”: the “polyreactivity (PSR sort gate)” value was “low polyreactivity”.

For the sequence “QVQLVESGGGLVQAGGSLRLSCAASGRIFAWNAMGWYRQAPGKERELVARIRVSGGRTYYADSVKGRFTISRDNAKNTVYLQMKSLKPDDTAVYYCNAYLRSGSMDYWGQGTQVTVSS”, the “polyreactivity (PSR sort gate)” value was “high polyreactivity”.

In the case of “QVQLVESGGGLVQAGGSLRLSCAASGRIFAYNALGWYRQAPGKERELVAAISWSGSSTYYADSVKGRFTISRDNAQNRVYLQMNSLTPEDTAVYYCAATPWYYYSTSYAYYDWGQGTQVTVSA”, the “polyreactivity (PSR sort gate)” value was “high polyreactivity”.

As to “QVQLVESGGGLVQAGGSLRLSCAASGRIFAYNTMGWYRQAPGKERELVAVITSGGSTNYADSVKGRFTISRDNAKNTVYLQMNSLKPEDTAVDYCNAPYVARKRFSYNYWGQGTQVTVSS”, the “polyreactivity (PSR sort gate)” value is given as “high polyreactivity”.

“QVQLVESGGGLVQAGGSLRLSCAASGRIFAYYAMGWYRQAPGKERELVAAISGSDGSTYYADSVKGRFTISLDNAKNTVYLQMNSLKPEDTAVYYCAAQDTPGYDYWGQGTQVTVSS”: the “polyreactivity (PSR sort gate)” value is reported as “low polyreactivity”.

As to “QVQLVESGGGLVQAGGSLRLSCAASGRIFAYYAMGWYRQAPGKERELVATINYSGTSTYYADSVKGRFTISRDNAKNTVYLQMNSLKPEDTAVYYCAARYGYAVYYYGTPVRRYYYWGQGTQVTVSS”, the “polyreactivity (PSR sort gate)” value is on record as “high polyreactivity”.

Turning to “QVQLVESGGGLVQAGGSLRLSCAASGRIFAYYAMGWYRQAPGKERELVATITDSGDDTYYADSVKGRFTISRDNAKNTVYLQMNSLKPEDTAVYYCNAVWRGWYPYWYDYWGQGTQVTVSS”, the “polyreactivity (PSR sort gate)” value is listed as “low polyreactivity”.

“QVQLVESGGGLVQAGGSLRLSCAASGRIFAYYAMGWYRQAPGKESELVAAINWSGDGTNYADSVKGRFTISRDNAKNTVYLQMNSLKPVDTAVYYCAARLGHSVNPGGERWDVEYWGQGTQVTVSS”: the “polyreactivity (PSR sort gate)” value is “low polyreactivity”.

As to “QVQLVESGGGLVQAGGSLRLSCAASGRIFAYYAMGWYRQAPGTERELVALISSTGGSTYYADSVKGRFTISRDNAKNTVYLQMNSLKPEDTAVYYCNKQVTGAERFQGHGAYYWGQGTQVTVSS”, the “polyreactivity (PSR sort gate)” value is reported as “high polyreactivity”.

Regarding “QVQLVESGGGLVQAGGSLRLSCAASGRIFAYYTMGWYRQAPGKERELVASITSGSSTNYADSVKGLFTISRDNAKNTVYLQMNSLKPEDTAVYYCAAPRGSYVRTRYRGYVVQSNYWGQGTQVTVSS”, the “polyreactivity (PSR sort gate)” value is reported as “high polyreactivity”.

For “QVQLVESGGGLVQAGGSLRLSCAASGRIFDANAMGWYRQAPGKERELVAAINLSGTSTYADSVKGRFTISRDNAKNTVYLQMNSLKPEDTAVYYCNKRSPSTIRFDYWGQGTQVTVSS”, the “polyreactivity (PSR sort gate)” value is listed as “high polyreactivity”.

With “QVQLVESGGGLVQAGGSLRLSCAASGRIFDDNTMGWSRQAPGKERELVAVITSGGSTNYADSVKGRFTISRDNAKNTVYLQMNSLKQEDTAVYYCATEPGGYRFADRPFQYGYWGQGTQVTVSS”, the “polyreactivity (PSR sort gate)” value was “low polyreactivity”.

Regarding “QVQLVESGGGLVQAGGSLRLSCAASGRIFDFNAMGWYRQAPGKDRELLAAISRGGGSTYYADSVKGRFTMSRDNAKYTVYLQMNSLKPEDTAVYYCNADYYYPLRSNKYYYWGQGTQVTVSS”, the “polyreactivity (PSR sort gate)” value was “high polyreactivity”.

As to “QVQLVESGGGLVQAGGSLRLSCAASGRIFDFNAMGWYRQAPGKEREVVAAISSGGRTKYADSVKGRFTISRDNAKNTVYLQMNSLKPEDTAVYYCAASGSQPDDYWGQGTQVTVSS”, the “polyreactivity (PSR sort gate)” value was “high polyreactivity”.

As to “QVQLVESGGGLVQAGGSLRLSCAASGRIFDFYGMGWYTQAPGKERELVAAISRRSGSTYYADSVKGRFTISRDNAKNTDYLQMNSLKPEDTAVYYCAAEPSSYRYDYWGQGTQGTVSS”, the “polyreactivity (PSR sort gate)” value is “high polyreactivity”.

In the case of “QVQLVESGGGLVQAGGSLRLSCAASGRIFDGYAMGWYIQAPGKERELVAAISSRGGRTYYADSVKGRFTISRDNAKNTVYLQMNSLKPEDSAVYYCAADDPYGECDYWGQGTQVTVSS”, the “polyreactivity (PSR sort gate)” value was “low polyreactivity”.

Consider “QVQLVESGGGLVQAGGSLRLSCAASGRIFDGYAMGWYRQAPGQERELVAAISSRGGRTYYADSVKGRFTISRDHAKNTVYLQMNSLKPEDTAVYYCAADDPYGEGDYWGQGTQVTVSS”, for which the “polyreactivity (PSR sort gate)” value is reported as “low polyreactivity”.

Turning to “QVQLVESGGGLVQAGGSLRLSCAASGRIFDGYDMGWYRQAPGKERELVAAITSVGSTNYADSVKGRFTISRDNAKNTVYLQMNSLKPEDSAVYYCAAVLYVFYDEYGYWEYFSQYDYWGQGTQVTVSS”, the “polyreactivity (PSR sort gate)” value was “low polyreactivity”.

Take “QVQLVESGGGLVQAGGSLRLSCAASGRIFDHNAMGWYRQAPGKERELVAAIDWSGGSTYYADSVKGRFTISRDNAKNTVYLQMNSLKPEDTAVYYCNVYWHTFSWDDYGYWGQGTQVTVSS”: the “polyreactivity (PSR sort gate)” value is listed as “low polyreactivity”.

For “QVQLVESGGGLVQAGGSLRLSCAASGRIFDINAMGWYIQAPGKERELVAAINYNGSSTYYADSVKGRFTISRDNAKNTVYLQKNSLKPEDTAVYYCATVQVDVYTYDYWGQGTKVTVSS”, the “polyreactivity (PSR sort gate)” value is on record as “high polyreactivity”.

“QVQLVESGGGLVQAGGSLRLSCAASGRIFDLYAMRWYRQAPGKESELVAAISIRGGSTYYADSVKGRFTISRDNAKNTVYLQMNSLKPEDTAVYYCAAEGPWLSDEYDYWGQGTQVTVSS”: the “polyreactivity (PSR sort gate)” value is given as “low polyreactivity”.

“QVQLVESGGGLVQAGGSLRLSCAASGRIFDLYTMGWYRQAPGKERELVAAISSSGGSTYYADSVKGRFTISRDNARNTVYLQMNSLKPEDTAVYYCNADWYYAGYGYWGQGTQVTVSS”: the “polyreactivity (PSR sort gate)” value is recorded as “low polyreactivity”.

“QVQLVESGGGLVQAGGSLRLSCAASGRIFDQYALGGSRQAPGKERELVAAITSGGSTYYADSVKGRFTISRDNAKNTVYLQMNSLKPEDTAVYYCAAEWQWYGYVLYKYYYWGQGTQVTVSS”: the “polyreactivity (PSR sort gate)” value is given as “high polyreactivity”.

Turning to “QVQLVESGGGLVQAGGSLRLSCAASGRIFDRNAMGWYRQAPGKERELVATISSGDTTDYADSVKGRFTISRDNAKNTVYLQMNSLKPEDTAVYYITIYNYWGQGTQVTVSS”, the “polyreactivity (PSR sort gate)” value is “low polyreactivity”.

Consider “QVQLVESGGGLVQAGGSLRLSCAASGRIFDRNAMVWYRQEPWKERELVAAIDDSGGDTSYADSVKGRFTISRDNAKNTVYLQMNSLKPEDTAVYYCNAGYADFVTYPRYYYWGQGTQVTLSS”, for which the “polyreactivity (PSR sort gate)” value was “low polyreactivity”.

As to “QVQLVESGGGLVQAGGSLRLSCAASGRIFDRYAMGWYRQAPGKERELVAAITSSGGRTYYADSVKGRFTISRDNAKNTVYLQMYSLKPEDTAVYYCAARWYGGYNYWGQGTQVTVSS”, the “polyreactivity (PSR sort gate)” value is “high polyreactivity”.

Consider “QVQLVESGGGLVQAGGSLRLSCAASGRIFDRYAMGWYRQAPGKERELVASITSSGGNTYYADSVKGRFTISRDNAKNTVYLQMNSLKPEDTAVYYCAKPQRVWQYGNYYYWGQGTQVTVSS”, for which the “polyreactivity (PSR sort gate)” value is recorded as “high polyreactivity”.

For “QVQLVESGGGLVQAGGSLRLSCAASGRIFDRYAMGWYRQAPGKERELVATIDSGGSTNYADSVKGRFTISRDNAKNTVYLQMNSLKPEDTAVYYCAVVTHSGYWSYYYWGQGTQVTVSS”, the “polyreactivity (PSR sort gate)” value is reported as “low polyreactivity”.

As to “QVQLVESGGGLVQAGGSLRLSCAASGRIFDSNAMGWYRQAPGKERELVAYITSGGRTYYADSVKGRFTISRDNAKNTVYLQMNSLKAEDTAVYYCAVRSYKRGPLDYWGQGTQVTVSS”, the “polyreactivity (PSR sort gate)” value is “high polyreactivity”.

On to “QVQLVESGGGLVQAGGSLRLSCAASGRIFDTNAMGWYRQAPGKERAFVAAISRSGGSTYYADSVKGRFTISRDNAKNTVYLQMNSLKPEDTAVYYCAARWYVLQPLGYDATHRKYYWGQGTQVTVSS”, for which the “polyreactivity (PSR sort gate)” value was “high polyreactivity”.

For “QVQLVESGGGLVQAGGSLRLSCAASGRIFDTNAMGWYRQAPGKERELVAAISSGDTTNYADSVKGRFTISRDNAKNTVYLQMNSLKPEDTAVYYCAVYAISFGWSGWTYEDSWGQGTQVTVSS”, the “polyreactivity (PSR sort gate)” value is recorded as “low polyreactivity”.

For “QVQLVESGGGLVQAGGSLRLSCAASGRIFDTYVMGWYRQAPGKERELVAAISGSGGSTYYADSVKGRFTISRDIAKNTVYLQMNSLKPEDTAVYYCAAARRYYAYRYDYWGQGTQVSVSS”, the “polyreactivity (PSR sort gate)” value is “high polyreactivity”.

Regarding “QVQLVESGGGLVQAGGSLRLSCAASGRIFDVNAMGWYRQAPGKERELVAAIRSGGRTNYADSVNGRFTISRDNAKNTVYLQMNSLKPEDTAVYYCAAVVWSSLDDYWGQGTQVTVSS”, the “polyreactivity (PSR sort gate)” value is “high polyreactivity”.

With “QVQLVESGGGLVQAGGSLRLSCAASGRIFDVNVMGWYRQAPGKERELVADISSGGGTDYADSVKGRFTISRDNAKNTVYLQMNILKQEDTAVYSCDWGQGTQVTVSS”, the “polyreactivity (PSR sort gate)” value is “low polyreactivity”.

For “QVQLVESGGGLVQAGGSLRLSCAASGRIFDVYAMGWYRQAPGKERELVAAITWSGGRTYYADSVKGRFTISRDNAKNTVYLQLNSLKPEDTAVYYCAAEKPYVRGYLWTYDYWGQGTQVTVSS”, the “polyreactivity (PSR sort gate)” value was “low polyreactivity”.

For “QVQLVESGGGLVQAGGSLRLSCAASGRIFDWNAVGWYRQAPGKERELVAAITWTGGTTYYADSVKGRFTISRDNAKNTVYLQMNSLKPEDTAVYYCAKRGGNQFAYRARSFDYWGQGTQVTLSS”, the “polyreactivity (PSR sort gate)” value is on record as “low polyreactivity”.

As for “QVQLVESGGGLVQAGGSLRLSCAASGRIFDWNTMGWYRQAPGKERELVAAISYDGSTYYADSVKGRFTISRDNAKNTVYLQMNSLKPEDTAVYYCNAYPLTQYFAQGYDYWGQGTQVTVSS”, the “polyreactivity (PSR sort gate)” value is on record as “low polyreactivity”.

For the sequence “QVQLVESGGGLVQAGGSLRLSCAASGRIFDWNVMGWYRQAPGKERELVAVINDSTGTTYYADSVKGRFTISRDNAKNTVYLQMNSLKPEDTAVYYCSADWSVFTYFYGYDYWGQGTQVTVSS”, the “polyreactivity (PSR sort gate)” value was “low polyreactivity”.

Regarding “QVQLVESGGGLVQAGGSLRLSCAASGRIFDWYAMGWYRQAPGKERELVAAISTSGANTYYADSVKGRFTISRDNAKNTVYLQMNSLKPEDTAVYYCATDPYQPYEGDYWGQGSQVTVSS”, the “polyreactivity (PSR sort gate)” value is on record as “low polyreactivity”.

For “QVQLVESGGGLVQAGGSLRLSCAASGRIFDYNTLGWYRQAPGKERELVAAISASGTRTYYADSVKGRFTISRDNAKNTVYLQMNSLKPEDTAVYYCAAVYSYIASYLRYDYWGQGTQVTVSS”, the “polyreactivity (PSR sort gate)” value is “high polyreactivity”.

As for “QVQLVESGGGLVQAGGSLRLSCAASGRIFDYYAMGWYRQAPGKERELVAAISLIGASTYYADSVKGRFTISRDNAKNTVYLQMNSLKPEDTAVYYCAAEFYLRRFKVTKRYWFDYWGQGTQVTVSS”, the “polyreactivity (PSR sort gate)” value is listed as “low polyreactivity”.
